The target in one experiment is HLA-B*44:03. As to the kind of experiment: IEDB peptide-MHC binding, purified MHC/competitive/radioactivity; filed as Kd, often an IC50 or EC50 that approximates it; ≥ and ≤ were set here for values at or beyond the usual limits of such assays.
For the next experiment, the target named is HLA-B*45:01. Described as above.
For the next experiment, the target named is HLA-B*18:01. The experiment is described as above.
For another experiment, the target named is HLA-B*44:02. The experiment is described as above.
For another experiment, the target named is HLA-B*40:01. The experiment is described as above.
The target in another experiment is HLA-B*40:02. Described as above.
The target of experiment [1] is HLA-A*02:01. As to the kind of experiment: IEDB peptide-MHC binding, purified MHC/competitive/fluorescence; filed as Kd, often an IC50 or EC50 that approximates it; ≥ and ≤ were set here for values at or beyond the usual limits of such assays.
For the next experiment, the target named is HLA-B*15:01. The experiment can be described thus: IEDB peptide-MHC binding, purified MHC/competitive/radioactivity; filed as Kd, often an IC50 or EC50 that approximates it; ≥ and ≤ were set here for values at or beyond the usual limits of such assays.
The next experiment has as its target HLA-A*30:02. The experiment is described as above.
The target of the next experiment is HLA-A*02:06. The experiment is described as above.
A further experiment addresses HLA-A*24:02. As to the kind of experiment: IEDB peptide-MHC binding, purified MHC/competitive/fluorescence; ≥ and ≤ were set here for values at or beyond the usual limits of such assays.
Experiment [2] deals with HLA-A*02:01. Described as above.
Another experiment has as its target HLA-A*02:03. As to the kind of experiment: IEDB peptide-MHC binding, purified MHC/competitive/radioactivity; filed as Kd, often an IC50 or EC50 that approximates it; ≥ and ≤ were set here for values at or beyond the usual limits of such assays.
Experiment [3] addresses HLA-A*02:01. The experiment is described as above.
For a further experiment, the target named is HLA-A*02:02. Described as above. The following applies: source organism: Homo sapiens.
In the next experiment the target is HLA-A*26:01. The description is as above. The following applies: source organism: Dengue virus 2 Jamaica/1409/1983.
Another experiment addresses HLA-A*01:01. The experiment is described as above.
The next experiment addresses HLA-B*08:01. The description is as above.
The target in a further experiment is HLA-A*31:01. The description is as above. The following applies: source organism: Vaccinia virus WR.
The target of a further experiment is HLA-A*03:01. Described as above. The following applies: source organism: Vaccinia virus WR.
The target in another experiment is HLA-A*11:01. The experiment is described as above. Conditions: source organism: Vaccinia virus WR.
The target in the next experiment is HLA-A*68:01. Described as above. The following applies: source organism: Vaccinia virus WR.
The target of the next experiment is HLA-A*33:01. The experiment is described as above. Conditions: source organism: Vaccinia virus WR.
[4] abbreviates: source organism: Lassa virus Josiah.
Setting [5] is: source organism: Dengue virus 2 Jamaica/1409/1983.
[6] abbreviates: source organism: Dengue virus 1 Brazil/97-11/1997.
Where [7] appears, read: source organism: Vaccinia virus WR.
Where [8] appears, read: source organism: Sudan ebolavirus.
Setting [9] is: source organism: Zaire ebolavirus.
Setting [10] is: source organism: Mammarenavirus lassaense.
The mark [11] stands for this setting: source organism: SARS coronavirus Tor2.
The mark [12] stands for this setting: source organism: Vaccinia virus.
The mark [13] stands for this setting: source organism: Dengue virus 3 Martinique/1243/1999.
Where [14] appears, read: source organism: Dengue virus 1 Singapore/S275/1990.
The mark [15] stands for this setting: source organism: Dengue virus 4 Philippines/H241/1956.

In general, Kd refers to the concentration at which binding is half-saturated. By IC50 is commonly meant the concentration that inhibits the measured activity by half.

Take AEAQMSIQL: the Kd with HLA-B*44:03 (setting [4]) was 0.106 µM; with HLA-B*45:01 (setting [4]), 0.246 µM; with HLA-B*18:01 (setting [4]), at least 23.7 µM; with HLA-B*44:02 (setting [4]) it was 0.0374 µM; with HLA-B*40:01 (setting [4]), 0.0229 µM; with HLA-B*40:02 (setting [4]), 0.0126 µM.

Take ALAWSLQML: in the experiment with HLA-A*02:01 [1] (source organism: Escherichia coli O139:H28 str. E24377A), the Kd stood at 0.0034 µM.

For ALHQVFGAIY, the Kd came out at 0.00438 µM with HLA-B*15:01 (setting [5]) and 0.0718 µM in the experiment with HLA-A*30:02 (setting [5]).

For AQMWQLMYF, the Kd in the experiment with HLA-A*02:06 (setting [6]) was determined as 0.00954 µM; with HLA-B*15:01 (setting [6]), 0.00158 µM.

With AQNALDNLVM, the dissociation constant (Kd) with HLA-B*15:01 (setting [6]) was found to be 0.00202 µM.

Consider ASNIVLDQI, for which the IC50 in the experiment with HLA-A*24:02 (setting [7]) was 5.24 µM; with HLA-A*02:01 [2] (setting [7]), at least 86.2 µM.

Take ATGKCNPNL: the IC50 with HLA-A*24:02 (setting [8]) was at least 142 µM; in the experiment with HLA-A*02:01 [2] (setting [8]) it was 12.3 µM.

Consider AWQSVGHMM, for which the IC50 in the experiment with HLA-A*24:02 (setting [9]) is 34.7 µM; with HLA-A*02:01 [2] (setting [9]), at least 180 µM.

Take DEILLDGGAS: the Kd with HLA-B*44:03 (setting [10]) is at least 25.9 µM; in the experiment with HLA-B*45:01 (setting [10]), 5.95 µM; with HLA-B*18:01 (setting [10]), 0.07 µM; with HLA-B*44:02 (setting [10]), at least 10 µM; in the experiment with HLA-B*40:01 (setting [10]) it was at least 42.9 µM; in the experiment with HLA-B*40:02 (setting [10]) it was 0.902 µM.

DEWSVATFY: the Kd in the experiment with HLA-B*44:03 (setting [11]) was 0.0104 µM; with HLA-B*45:01 (setting [11]), at least 77.8 µM; with HLA-B*18:01 (setting [11]), 0.00282 µM; with HLA-B*44:02 (setting [11]) it was 0.316 µM; with HLA-B*40:01 (setting [11]), at least 76.2 µM; with HLA-B*40:02 (setting [11]) it was at least 77.3 µM.

As to DLEDLKDQI, the Kd with HLA-A*02:06 (source organism: Homo sapiens) is at least 78.7 µM; in the experiment with HLA-A*02:03 (source organism: Homo sapiens), 13.6 µM; with HLA-A*02:01 [3] (source organism: Homo sapiens), at least 24.3 µM; in the experiment with HLA-A*02:02 it was 16.4 µM.

For the sequence DRDINPIVK, the IC50 in the experiment with HLA-A*24:02 (setting [12]) came out at 33.5 µM.

EDDRERLKV yielded an IC50 in the experiment with HLA-A*24:02 (source organism: Variola virus) of 0.0168 µM.

Consider ESRFTPQFL, for which, in the experiment with HLA-A*24:02 (setting [9]), the IC50 turned out to be 22.4 µM.

With GLFGKGSLV, the Kd stood at 0.00292 µM in the experiment with HLA-A*02:03 (setting [13]) and 0.0029 µM with HLA-A*02:01 [3] (source organism: dengue virus type 3).

The sequence GLLEAGNSL showed a Kd with HLA-A*02:01 [1] (setting [7]) of 0.0032 µM.

In the case of GQITWRDMAH, the Kd with HLA-B*15:01 (setting [13]) was 0.153 µM.

Regarding HTAEAGGRAY, the Kd in the experiment with HLA-A*26:01 is 0.0246 µM; in the experiment with HLA-B*15:01 (setting [5]), 0.115 µM; with HLA-A*30:02 (setting [5]), 0.0251 µM; with HLA-A*01:01 (setting [5]), at least 70.4 µM.

In the case of IHQGMHMVA, the IC50 in the experiment with HLA-A*24:02 (setting [9]) was at least 185 µM; with HLA-A*02:01 [2] (setting [9]) it was at least 84.7 µM.

Turning to IMAVGIVSIL, the Kd in the experiment with HLA-B*08:01 (setting [14]) amounted to 0.173 µM; with HLA-B*15:01 (setting [14]), 0.00803 µM.

Regarding IWKVNPEID, the IC50 with HLA-A*24:02 (setting [9]) worked out at 62.1 µM.

With IYRGTTFAE, the IC50 with HLA-A*24:02 (setting [9]) was 9.88 µM.

In the case of KEFTRPLISG, the Kd is 2.64 µM with HLA-B*45:01 (setting [11]); at least 70.5 µM with HLA-B*18:01 (setting [11]); 10.1 µM with HLA-B*44:02 (setting [11]); 1.6 µM with HLA-B*40:01 (setting [11]); 19.5 µM in the experiment with HLA-B*40:02 (setting [11]).

In turn, KLFSDISAI displayed a Kd with HLA-A*02:01 [1] (setting [12]) of 0.0022 µM.

KLHSGVDVFY: the dissociation constant (Kd) with HLA-B*15:01 (setting [15]) turned out to be 0.00276 µM; with HLA-A*30:02 (setting [15]) it was 0.0121 µM; in the experiment with HLA-A*01:01 (setting [15]), 2.87 µM.

KLVVVAVGV yielded a Kd in the experiment with HLA-A*02:01 [1] (source organism: Schaalia radingae) of 0.01 µM.

LDRPHTPQF had an IC50 with HLA-A*24:02 (setting [8]) of 23.8 µM.

As for LMALKLITQF, the Kd with HLA-B*15:01 (setting [13]) was 0.149 µM.

For the sequence LMNKENAEM, the Kd in the experiment with HLA-B*15:01 (setting [7]) is 0.0077 µM.

Take LVYKKMQSY: the Kd in the experiment with HLA-B*15:01 (setting [7]) was 0.0457 µM.

In the case of MQKFTILEY, the Kd is 0.174 µM with HLA-A*31:01; 0.0101 µM with HLA-B*15:01 (setting [7]); 0.47 µM with HLA-A*03:01; 0.0398 µM in the experiment with HLA-A*11:01; 10.8 µM with HLA-A*68:01; at least 54.5 µM with HLA-A*33:01.

Consider MVCPNINAF, for which the Kd in the experiment with HLA-B*15:01 (setting [7]) amounted to 0.022 µM.

For NLNVTTQSI, the IC50 was determined as 11.1 µM in the experiment with HLA-A*24:02 (setting [12]) and 44.7 µM with HLA-A*02:01 [2] (setting [12]).

In the experiment with HLA-A*24:02 (setting [9]), RFTPQFLLQ displayed an IC50 of 4.08 µM.

Regarding RLRGEARKTF, the Kd in the experiment with HLA-B*15:01 (setting [5]) was 0.0493 µM.

Take SLKDVLVSV: the Kd in the experiment with HLA-A*02:01 [1] (source organism: Horsepox virus) is 0.0036 µM.

Consider TGILQLPRD, for which the results for the half-inhibitory concentration (IC50) with HLA-A*24:02 (setting [9]) and with HLA-A*02:01 [2] (setting [9]) were at least 506 µM and at least 584 µM, respectively.

In the experiment with HLA-A*02:01 [1] (setting [7]), VLSPTIGHV yielded a Kd of 0.004 µM.

Turning to VMVMVGATM, the Kd with HLA-B*15:01 (setting [5]) was found to be 0.00277 µM.

For the sequence YIKFIFLQM, the Kd worked out at 0.00858 µM with HLA-B*08:01 (setting [7]) and 1.35 µM with HLA-B*15:01 (setting [7]).

On to YIRFRKNHI, for which the Kd turned out to be 0.00144 µM in the experiment with HLA-B*08:01 (setting [7]) and 1.01 µM with HLA-B*15:01 (setting [7]).

Regarding YLKEEQDQQY, the figures for the Kd with HLA-B*15:01 (setting [15]) and with HLA-A*01:01 (setting [15]) were 0.00759 µM and 15.6 µM, respectively.

In the experiment with HLA-A*02:01 [1] (source organism: Bacillus cereus G9241), YLKKKNHPL registered a Kd of 0.006 µM.

The record behind these values is the Immune Epitope Database (IEDB).
